Test [1] addresses T1, human IL-6 (as added in the B9 and 7TD1 bioassays) (human, UniProt P05231 30-212). The test is described as follows: cell-based or functional assay.
The target of test [2] is T1, human IL-6 (as added in the B9 and 7TD1 …). Briefly: cell-based or functional assay. This is another data set of the same source.
Test [3] addresses T2, eukaryotically produced human IL-6 (human, UniProt P05231 30-212).
T2 construct: also called eukIL-6; Euk IL-6
Briefly: SPR; purified Fab. Background: SPR reads the build-up and loss of mass on a sensor chip optically.

In test [4] the target is T3, cynomolgus monkey IL-6 (cynomolgus monkey, UniProt P79341 28-212, limits assumed).
T3 construct: also called HIS-cyIL-6
The test is described as follows: SPR; purified Fab.

Test [5] has as its target T4, bacterially produced human IL-6 (human, UniProt P05231 30-212).
T4 construct: also called bactIL-6; prokaryotic IL-6
The test is described as follows: SPR; purified Fab.

The target in test [6] is T4, bacterially produced human IL-6. Briefly: SPR; purified Fab over biotinylated IL-6 on streptavidin chip.
Procedure: (§1) From the washing phase the off-rate (kd) was determined, while from the injection phase the on-rate (ka) was calculated using the concentration and off-rate as parameters.
The target of test [7] is T2, eukaryotically produced human IL-6. Briefly: SPR; purified Fab; IL-6 coated on CM5 chip.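 Note: dissociation rate taken from the wash phase, association rate fitted over the injection phase with analyte concentration and dissociation rate as inputs.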
Procedure: as §1
The target in test [8] is T4, bacterially produced human IL-6. Briefly: SPR; purified Fab; IL-6 coated on CM5 chip.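 Note: dissociation rate taken from the wash phase, association rate fitted over the injection phase with analyte concentration and dissociation rate as inputs.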
Procedure: as §1
In test [9] the target is T2, eukaryotically produced human IL-6. Briefly: SPR; periplasmic fraction; against parental 29B11.
Test [10] addresses T3, cynomolgus monkey IL-6. The test is described as follows: SPR; periplasmic fraction; against parental 29B11.
In test [11] the target is T4, bacterially produced human IL-6. The test is described as follows: SPR; periplasmic fraction; against parental 29B11.
Test [12] addresses T2, eukaryotically produced human IL-6. The test is described as follows: SPR; periplasmic fraction.
The target in test [13] is T3, cynomolgus monkey IL-6. Briefly: SPR; periplasmic fraction.
Test [14] concerns the target T4, bacterially produced human IL-6. Briefly: SPR; periplasmic fraction.

Several values for one entry are separate records, joined by “and”; a condition that tells them apart may be missing. Identical values can stand only once.

B1: 133H2 (germlined variant of 68F2) (antibody, V domains shown)
VH: EVQLQESGPGLVKPSQTLSLTCTVSGGSITTRYYAWSWIRQPPGKGLEWIGVIDYDGDTYYSPSLKSRTTISWDTSKNQFSLKLSSVTPADTAVYYCARDPDVVTGFHYDYWGQGTTVTVSS
VL: QSALTQPPLVSGSPGQTVTISCAGANNDIGTYAYVSWYQQPPGTAPKLMIYKVTTRASGIPDRFSGSKSGNTASLTISGLQAEDEADYYCASYRNFNNAVFGSGTKLTVL
As for B1, in [1], the “IC50, 7TD1 cells (batch A1.8)” value is 0.00035 nM; the “IC50, 7TD1 cells (batch A9.11)” value stood at 0.00047 nM; the “Potency relative to 68F2, 7TD1 cells (batch A1.8)” value was found to be 1.94; the “Potency relative to 68F2, 7TD1 cells (batch A9.11)” value was 1.44. Moreover, in [2], the “IC 50, B9 cell proliferation” value was found to be 0.00037 nM and the “Rel. potency, B9 cells” value turned out to be 2.2.

B2: Fab 20A4 (Fab, V domains shown)
VH: EVQLQESGPGLVKPSQTLSLTCTVSGGSITTRYYAWSWIRQPPGKGLEWMGVIDYDGDTYYSPSLKSRTSISWDTSKNQFSLQLSSVTPEDTAVYYCARDPDVVTGFHYDYWGQGTQVTVSS
VL: LNFMLTQPPSVSGTLGKTVTISCAGTSSDIGGYNYVSWYQQLPGTAPKLLIHRVSTRASGIPDRFSGSKSGNTASLTISGLRSEDEANYYCASYRNFNNAVFGGGTQLTVLG
notes: Fab
What is called Kd is a measure of binding affinity in units of concentration. Usually koff stands for the first-order rate constant of dissociation. One may read the kon as the second-order rate constant of association. On to B2, for which the dissociation constant (Kd) in [3] turned out to be 0.81 nM; with cynomolgus monkey IL-6 [4] it was 1.7 nM; in [5] it was 2 nM; in [6], 5.82 nM; in [7], 0.81 nM; in test [8] it was 2 nM. Besides, the dissociation rate constant (koff) amounted to 0.0003 s⁻¹ in test [3]; 0.00075 s⁻¹ with cynomolgus monkey IL-6 [4]; 0.00062 s⁻¹ in test [5]; 0.00168 s⁻¹ in test [6]; 0.0003 s⁻¹ in [7]; 0.00062 s⁻¹ in test [8]. In [6], this molecule had a Ka of 1.72e+08 M⁻¹. In test [6], this molecule yielded an association rate constant (kon) of 288000 M⁻¹ s⁻¹.

B3: Fab 42H1/36A1 (Fab, V domains shown)
VH: EVQLVESGGGLVQPGGSLRLSCAASGFTFSSYAMSWVRQAPGKGLEWVSAINSGGGSTSYADSVKGRFTISRDNAKNTLYLQMNSLKPEDTAVYYCAKEGDTGWKDPMYDYWGQGTQVTVSS
VL: AQSALTQPSALSVTLGQTAKITCQGGSLGTRYAHWYQQKPGQAPVLVIYDDDSRPSGIPERFSGSSSGGRATLTISGAQAEDEGDYYCQSADSSGNASVFGGGTHLTVLG
notes: VL-shuffled Fab of 18C11
Take B3: the Kd turned out to be 0.34 nM in [3], 0.69 nM in the test with cynomolgus monkey IL-6 [4] and 0.75 nM in test [5]. In addition, the results for the koff (in test [3]; in the test with cynomolgus monkey IL-6 [4]; in [5]) were 0.00011 s⁻¹, 0.00015 s⁻¹ and 0.00015 s⁻¹, respectively.

B4: Fab 55C1 (Fab, V domains shown)
VH: EVQLVESGGGLVQPGGSLRLSCAASGFTFSSYAMSWVRQAPGKGLEWVSRISSGGISTYYADSVKGRFTISRDNAKNTLYLQMNSLKPEDTAVYYCVRYAWGVQWAFDFWGQGTQVTVSS
VL: LNFMLTQPPSVSGSPGKTVTISCAGTSSDVGYGNYVSWYQQLPGTAPKLLIYNVNKRASGITDRFSGSKSGNTASLTISGLQSEDEADYYCASYRTGDNAAFGGGTKLTVLG
notes: VL-shuffled Fab of 29B11, periplasmic fraction; also called 55C1a
Consider B4, for which, in [9], the “fold improvement KD” value worked out at 3.03 fold, the fold improvement ka was found to be 2.35 fold and the fold improvement kd is 1.29 fold. Moreover, in the test with cynomolgus monkey IL-6 [10], the “fold improvement KD” value stood at 8.25 fold, the fold improvement ka was 4.2 fold and the fold improvement kd was 1.96 fold. In [11], the “fold improvement KD” value came to 3.97 fold, the fold improvement ka turned out to be 2.24 fold and the fold improvement kd is 1.78 fold. Moreover, in [12], the Ka was found to be 5.55e+09 M⁻¹, binding was put at a Kd of 0.18 nM, the off-rate constant (koff) worked out at 7.93e-05 s⁻¹ and the kon turned out to be 440000 M⁻¹ s⁻¹. In the test with cynomolgus monkey IL-6 [13], this molecule displayed a Ka of 1.25e+09 M⁻¹, a Kd of 0.801 nM, a koff of 0.000381 s⁻¹ and a kon of 475000 M⁻¹ s⁻¹. Moreover, in [14], the Ka came to 7.6e+09 M⁻¹, the equilibrium dissociation constant (Kd) amounted to 0.132 nM, the koff is 7.38e-05 s⁻¹ and the kon amounted to 561000 M⁻¹ s⁻¹.

B5: Fab 47C2 (Fab, V domains shown)
VH: EVQLVESGGGLVQPGGSLRLSCAASGFTFSSYAMSWVRQAPGKGLEWVSRISSGGISTYYADSVKGRFTISRDNAKNTLYLQMNSLKPEDTAVYYCVRYAWGVQWAFDFWGQGTQVTVSS
VL: LSYDLTQPPSVSGSPGKTVTISCAGTSSDVGYGNYVSWYQQLPGMAPKILIYDVNKRASGIADRFSGSKSGNTASLTISGLQSEDEADYYCASYRRGETIVFGGGTHLTVLG
notes: VL-shuffled Fab of 29B11, periplasmic fraction; also called 47C2 (R4)
Take B5: in test [9], the “fold improvement KD” value worked out at 1.94 fold, the fold improvement ka came out at 4.54 fold and the fold improvement kd amounted to 0.43 fold. In the test with cynomolgus monkey IL-6 [10], the “fold improvement KD” value was determined as 4.29 fold, the fold improvement ka was found to be 7.53 fold and the fold improvement kd is 0.57 fold. Moreover, in [11], the “fold improvement KD” value came to 1.86 fold, the fold improvement ka was 4.46 fold and the fold improvement kd is 0.42 fold. In test [12], the Ka was 3.54e+09 M⁻¹, the Kd was 0.282 nM, the off-rate constant (koff) turned out to be 0.00024 s⁻¹ and the kon was 849000 M⁻¹ s⁻¹. In the test with cynomolgus monkey IL-6 [13], the Ka is 6.48e+08 M⁻¹, the Kd is 1.54 nM, the dissociation rate constant (koff) is 0.00131 s⁻¹ and the association rate constant (kon) stood at 851000 M⁻¹ s⁻¹. In test [14], this molecule registered a Ka of 3.56e+09 M⁻¹, a dissociation constant Kd of 0.281 nM, a koff of 0.000315 s⁻¹ and an on-rate (kon) of 1.12e+06 M⁻¹ s⁻¹.

B6: Fab 55H1 (Fab, V domains shown)
VH: EVQLVESGGGLVQPGGSLRLSCAASGFTFSSYAMSWVRQAPGKGLEWVSRISSGGISTYYADSVKGRFTISRDNAKNTLYLQMNSLKPEDTAVYYCVRYAWGVQWAFDFWGQGTQVTVSS
VL: AQSVVTQPPSVSGSPGKTVTISCAGTSSDVGYGNYVSWYQQLPGMAPKLLIYDVSKRASGIADRFSGSKSGNTASLTISGLQSEDEADYVCASYRRGGTAVFGGGTHLTVLG
notes: VL-shuffled Fab of 29B11, periplasmic fraction; also called 55H1c
For the molecule B6, in test [9], the “fold improvement KD” value is 5.59 fold, the fold improvement ka came to 6.04 fold and the fold improvement kd was found to be 0.92 fold. Moreover, in the test with cynomolgus monkey IL-6 [10], the “fold improvement KD” value is 12.5 fold, the fold improvement ka came out at 10.3 fold and the fold improvement kd was 1.21 fold. In [11], the “fold improvement KD” value is 5.26 fold, the fold improvement ka came to 5.1 fold and the fold improvement kd was 1.03 fold. Further, in [12], the Ka was determined as 1.02e+10 M⁻¹, binding was put at a Kd of 0.0977 nM, the dissociation rate constant (koff) was 0.000111 s⁻¹ and the on-rate constant (kon) amounted to 1.13e+06 M⁻¹ s⁻¹. In the test with cynomolgus monkey IL-6 [13], this molecule showed a Ka of 1.89e+09 M⁻¹, a Kd of 0.529 nM, an off-rate (koff) of 0.000615 s⁻¹ and an association rate constant (kon) of 1.16e+06 M⁻¹ s⁻¹. For the same molecule, in test [14], the Ka was 1e+10 M⁻¹; the affinity, expressed as Kd, was 0.0997 nM; the off-rate constant (koff) is 0.000127 s⁻¹; the kon was determined as 1.28e+06 M⁻¹ s⁻¹.

B7: Fab 55E2 (Fab, V domains shown)
VH: EVQLVESGGGLVQPGGSLRLSCAASGFTFSSYAMSWVRQAPGKGLEWVSRISSGGISTYYADSVKGRFTISRDNAKNTLYLQMNSLKPEDTAVYYCVRYAWGVQWAFDFWGQGTQVTVSS
VL: AQSVLTQPPSVSGSPGKTVTISCAGTSSDVGYGNYVSWYQQLPGMAPKLLIYDVNKRASGIADRFSGSKFANTASLTISGLQSEDEADYYCASYKRGDNAVFGGGTKLTVLG
notes: VL-shuffled Fab of 29B11, periplasmic fraction; also called 55E2b
With B7, in [9], the “fold improvement KD” value came to 3.46 fold, the fold improvement ka came out at 2.21 fold and the fold improvement kd worked out at 1.56 fold. Also, in the test with cynomolgus monkey IL-6 [10], the “fold improvement KD” value is 9.22 fold, the fold improvement ka worked out at 4.14 fold and the fold improvement kd came to 2.22 fold. In test [11], the “fold improvement KD” value was found to be 3.82 fold, the fold improvement ka was 1.95 fold and the fold improvement kd was 1.95 fold. In test [12], this molecule showed a Ka of 6.34e+09 M⁻¹, a Kd of 0.158 nM, an off-rate (koff) of 6.53e-05 s⁻¹ and an association rate constant (kon) of 414000 M⁻¹ s⁻¹. In the test with cynomolgus monkey IL-6 [13], this molecule showed a Ka of 1.39e+09 M⁻¹, a Kd of 0.717 nM, a koff of 0.000336 s⁻¹ and a kon of 468000 M⁻¹ s⁻¹. Besides, in [14], the Ka turned out to be 7.28e+09 M⁻¹, binding was put at a Kd of 0.137 nM, the koff turned out to be 6.72e-05 s⁻¹ and the kon was 489000 M⁻¹ s⁻¹.

B8: Fab 18C7 (Fab, V domains shown)
VH: EVQLVESGPGLVKPSQTLSLTCTVSGGSITASFDAWSWIRQPPGKGLEWMGVIAYDGSTYYSPSLKSRTSISRDTSKNQFSLQLSSVTPEDTAVYYCARKSSWLIGYGMDYWGKGTLVTVSS
VL: QAGLTQPSALSVTLGQTAKITCQGGSLGSSYAHWYQQKPGQAPVLVIYDDDSRPSGIPERFSGSSSGGRATLTISGAQAEDEGDYYCQSADSSGNAAVFGGGTHLTVLG
notes: Fab; also called 18C7 (090-423)
In the case of B8, the Kd in [3] is 7.7 nM and 5.2 nM; in the test with cynomolgus monkey IL-6 [4], 5.3 nM and 4.9 nM; in test [5], 9.1 nM; in test [6], 17.5 nM; in test [7], 7.7 nM; in test [8] it was 9.1 nM. The off-rate constant (koff) in test [3] is 0.001 s⁻¹ and 0.00082 s⁻¹; with cynomolgus monkey IL-6 [4] it was 0.00063 s⁻¹ and 0.00069 s⁻¹; in test [5], 0.0011 s⁻¹; in test [6] it was 0.00185 s⁻¹; in test [7] it was 0.001 s⁻¹; in test [8], 0.0011 s⁻¹. The Ka in [6] was 5.7e+07 M⁻¹. Also, the kon in test [6] was determined as 105000 M⁻¹ s⁻¹.

The values are drawn from patent US20220073604A1 (ARGENX BVBA, published 2022).
